Test results reported in patent US20210388110A1 (published 2021).
Positions count from the first letter of the chain named. Several values for one entry are separate records, joined by “and”; a condition that tells them apart may be missing. Equal values may be shown once.

B1: TR01H091-E22Hh/none-Hi-Kn010G3/L0011-k0 (antibody, human IgG1, kappa, L234A L235A, N297A)
heavy: QVQLVESGGGLVQPGRSLKLSCAASGFTFSNAWMHWVRQAPGKGLEWVAQIKDKSQNYATYYAESVKGRFTISRDDSKNSLYLQMNSLKTEDTAVYYCRYVHYAAGYGVDAWGQGTTVTVSSASTKGPSVFPLAPSSKSTSGGTAALGCLVKDYFPEPVTVSWNSGALTSGVHTFPAVLQSSGLYSLSSVVTVPSSSLGTQTYICNVNHKPSNTKVDKKVEPKSCDKTHTCPPCPAPEAAGGPSVFLFPPKPKDTLMISRTPEVTCVVVDVSHEDPEVKFNWYVDGVEVHNAKTKPREEQYASTYRVVSVLTVLHQDWLNGKEYKCKVSNKALPAPIEKTISKAKGQPREPQVYTLPPSRCELTKNQVSLSCAVKGFYPSDIAVEWESNGQPENNYKTTPPVLDSDGSFFLVSKLTVDKSRWQQGNVFSCSVMHEALHNHYTQKSLSLSPDYKDDDDK
chain: EPKSSDKTHTCPPCPAPELLGGPSVFLFPPKPKDTLMISRTPEVTCVVVDVSHEDPEVKFNWYVDGVEVHNAKTKPREEQYNSTYRVVSVLTVLHQDWLNGKEYKCKVSNKALPAPIEKTISKAKGQPREPQVCTLPPSRDELTKNQVSLWCLVKGFYPSDIAVEWESNGQPENNYKTTPPVLDSDGSFFLYSKLTVDKSRWQQGNVFSCSVMHEALHNRYTQKSLSLSP
light: DIVMTQSPLSLPVTPGEPASISCRSSQPLVHSNRNTYLHWYQQKPGQAPRLLIYKVSNRFSGVPDRFSGSGSGTDFTLKISRVEAEDVGVYYCGQGTQVPYTFGQGTKLEIKRTVAAPSVFIFPPSDEQLKSGTASVVCLLNNFYPREAKVQWKVDNALQSGNSQESVTEQDSKDSTYSLSSTLTLSKADYEKHKVYACEVTHQGLSSPVTKSFNRGEC
notes: one-arm antibody (single Fab) with Fab-less hinge-Fc chain Hi-Kn010G3
B2: TR01H015-E22Hh/none-Hi-Kn010G3/TR01L006-k0 (antibody, human IgG1, kappa, L234A L235A, N297A)
heavy: B1 heavy with K19R, D53G, Q56N, D75A, L81I, A104S, G106S, A111I
chain: B1 chain
light: B1 light with R24Q, S25A, Q27E, P28S, Q42L, A48S, R50Q, L109V, K112E
notes: as for B1
B3: rCE115H-E22Hh/none-Hi-Kn010G3/L0000vk1-k0 (antibody, human IgG1, kappa, L234A L235A, N297A)
heavy: EVQLVETGGSLVQPGKSLKLTCATSGFTFSNAWMHWVRQSPEKQLEWVAQIKAKSNNYATYYAESVKGRFTISRDDSKSNIYLQMNSLKEEDTAVYYCRYVHYGAYYGVDAWGQGTSVTVSSASTKGPSVFPLAPSSKSTSGGTAALGCLVKDYFPEPVTVSWNSGALTSGVHTFPAVLQSSGLYSLSSVVTVPSSSLGTQTYICNVNHKPSNTKVDKKVEPKSCDKTHTCPPCPAPEAAGGPSVFLFPPKPKDTLMISRTPEVTCVVVDVSHEDPEVKFNWYVDGVEVHNAKTKPREEQYASTYRVVSVLTVLHQDWLNGKEYKCKVSNKALPAPIEKTISKAKGQPREPQVYTLPPSRCELTKNQVSLSCAVKGFYPSDIAVEWESNGQPENNYKTTPPVLDSDGSFFLVSKLTVDKSRWQQGNVFSCSVMHEALHNHYTQKSLSLSPDYKDDDDK
chain: B1 chain
light: DIQMTQSPSSLSASVGDRVTITCRSSQSLVHSNRNTYLHWYQQKPGKAPKLLIYKVSNRFSGVPSRFSGSGSGTDFTFTISSLQPEDIATYYCGQGTQVPYTFGQGTKVEIKRTVAAPSVFIFPPSDEQLKSGTASVVCLLNNFYPREAKVQWKVDNALQSGNSQESVTEQDSKDSTYSLSSTLTLSKADYEKHKVYACEVTHQGLSSPVTKSFNRGEC
notes: as for B1
B4: rCE115H-E22Hh/none-Hi-Kn010G3/rCE115L-k0 (antibody, human IgG1, kappa, L234A L235A, N297A)
heavy: B3 heavy
chain: B1 chain
light: DVVMTQTPVSMSVSLGGQVSISCRSSQSLVHNNGNTYVSWYIQKPSQSPQLLIYKVSNRFSGISDRFSGSGSGTDFTLKISRVEPDDLGVYYCGQGTQDPYTFGAGTKLELKRTVAAPSVFIFPPSDEQLKSGTASVVCLLNNFYPREAKVQWKVDNALQSGNSQESVTEQDSKDSTYSLSSTLTLSKADYEKHKVYACEVTHQGLSSPVTKSFNRGEC
notes: one-arm antibody (single Fab) with Fab-less hinge-Fc chain Hi-Kn010G3; also called rCE115H-E22Hh//-Hi-Kn010G3/rCE115L-k0
B5: rCE115H-E22Hh/none-Hi-Kn010G3/L0000-k0 (antibody, human IgG1, kappa, L234A L235A, N297A)
heavy: B3 heavy
chain: B1 chain
light: B1 light with P28S
notes: as for B1
B6: TR01H093-E22Hh/none-Hi-Kn010G3/L0011-k0 (antibody, human IgG1, kappa, L234A L235A, N297A)
heavy: B1 heavy with K19R, K67Q
chain: B1 chain
light: B1 light
notes: as for B1
B7: TR01H106-E22Hh/none-Hi-Kn010G3/L0011-k0 (antibody, human IgG1, kappa, L234A L235A, N297A)
heavy: B1 heavy with K19R, Y62P
chain: B1 chain
light: B1 light
notes: as for B1
B8: hCE115HAa-E22Hh/none-Hi-Kn010G3/L0000-k0 (antibody, human IgG1, kappa, L234A L235A, N297A)
heavy: B1 heavy with L11V, R16G, K19R, D53A, Q56N, A104G, G106Y
chain: B1 chain
light: B1 light with P28S
notes: as for B1
B9: hCE115HA-E22Hh/none-Hi-Kn010G3/L0000-k0 (antibody, human IgG1, kappa, L234A L235A, N297A)
heavy: B1 heavy with L11V, K19R, D53A, Q56N, A104G, G106Y
chain: B1 chain
light: B1 light with P28S
notes: as for B1
B10: TR01H103-E22Hh/none-Hi-Kn010G3/L0011-k0 (antibody, human IgG1, kappa, L234A L235A, N297A)
heavy: B1 heavy with K19R, Y62G
chain: B1 chain
light: B1 light
notes: as for B1
B11: TR01H105-E22Hh/none-Hi-Kn010G3/L0011-k0 (antibody, human IgG1, kappa, L234A L235A, N297A)
heavy: B1 heavy with K19R, Y62L
chain: B1 chain
light: B1 light
notes: as for B1
B12: TR01H109-E22Hh/none-Hi-Kn010G3/L0011-k0 (antibody, human IgG1, kappa, L234A L235A, N297A)
heavy: B1 heavy with K19R, Y62V
chain: B1 chain
light: B1 light
notes: as for B1
B13: TR01H101-E22Hh/none-Hi-Kn010G3/L0011-k0 (antibody, human IgG1, kappa, L234A L235A, N297A)
heavy: B1 heavy with K19R, T60V
chain: B1 chain
light: B1 light
notes: as for B1
B14: TR01H096-E22Hh/none-Hi-Kn010G3/L0011-k0 (antibody, human IgG1, kappa, L234A L235A, N297A)
heavy: B1 heavy with K19R, T60G
chain: B1 chain
light: B1 light
notes: as for B1
B15: TR01H099-E22Hh/none-Hi-Kn010G3/L0011-k0 (antibody, human IgG1, kappa, L234A L235A, N297A)
heavy: B1 heavy with K19R, T60Q
chain: B1 chain
light: B1 light
notes: as for B1
B16: TR01H097-E22Hh/none-Hi-Kn010G3/L0011-k0 (antibody, human IgG1, kappa, L234A L235A, N297A)
heavy: B1 heavy with K19R, T60L
chain: B1 chain
light: B1 light
notes: as for B1
B17: TR01H107-E22Hh/none-Hi-Kn010G3/L0011-k0 (antibody, human IgG1, kappa, L234A L235A, N297A)
heavy: B1 heavy with K19R, Y62Q
chain: B1 chain
light: B1 light
notes: as for B1
B18: TR01H094-E22Hh/none-Hi-Kn010G3/L0011-k0 (antibody, human IgG1, kappa, L234A L235A, N297A)
heavy: B1 heavy with K19R, K67S
chain: B1 chain
light: B1 light
notes: as for B1
B19: TR01H092-E22Hh/none-Hi-Kn010G3/L0011-k0 (antibody, human IgG1, kappa, L234A L235A, N297A)
heavy: B1 heavy with K19R, K67A
chain: B1 chain
light: B1 light
notes: as for B1
B20: TR01H104-E22Hh/none-Hi-Kn010G3/L0011-k0 (antibody, human IgG1, kappa, L234A L235A, N297A)
heavy: B1 heavy with K19R, Y62I
chain: B1 chain
light: B1 light
notes: as for B1
B21: TR01H102-E22Hh/none-Hi-Kn010G3/L0011-k0 (antibody, human IgG1, kappa, L234A L235A, N297A)
heavy: B1 heavy with K19R, Y62F
chain: B1 chain
light: B1 light
notes: as for B1
B22: TR01H108-E22Hh/none-Hi-Kn010G3/L0011-k0 (antibody, human IgG1, kappa, L234A L235A, N297A)
heavy: B1 heavy with K19R, Y62T
chain: B1 chain
light: B1 light
notes: as for B1
B23: TR01H098-E22Hh/none-Hi-Kn010G3/L0011-k0 (antibody, human IgG1, kappa, L234A L235A, N297A)
heavy: B1 heavy with K19R, T60P
chain: B1 chain
light: B1 light
notes: as for B1
B24: TR01H095-E22Hh/none-Hi-Kn010G3/L0011-k0 (antibody, human IgG1, kappa, L234A L235A, N297A)
heavy: B1 heavy with K19R, T60F
chain: B1 chain
light: B1 light
notes: as for B1

biological target: T1, soluble human CD3ε chain (human, UniProt P07766 23-126, limits assumed); experiment: SPR (Biacore), soluble human CD3ε chain
T1 construct: also called human CD3 epsilon chain
T1 sequence (P07766 23-126 limits assumed): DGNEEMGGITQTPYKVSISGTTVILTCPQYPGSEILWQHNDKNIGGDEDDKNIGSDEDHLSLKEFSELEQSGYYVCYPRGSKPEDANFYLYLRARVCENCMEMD

Binder	Kd
B1	66.7 nM
B2	93 nM
B3	85.2 nM
B4	124 nM and 138 nM
B5	80 nM
B6	68 nM
B7	100 nM
B8	108 nM
B9	124 nM
B10	77.2 nM
B11	69.5 nM
B12	70.6 nM
B13	78.7 nM
B14	74.7 nM
B15	77.4 nM
B16	87.6 nM
B17	69.1 nM
B18	70 nM
B19	72.1 nM
B20	82.6 nM
B21	85.4 nM
B22	69.8 nM
B23	91.4 nM
B24	90.9 nM
